Results on 9 compounds are retold here after patent US20240279315A1 (priority 2023, published 2024).

Where two headings read alike, the source gives them in different places. Bounds are passed on as bounds.

The target of experiment [1] is hemagglutinin (HA) of influenza A/Guangdong-maonan/2019 H1N1 (influenza A virus A/Guangdong-maonan/2019 (H1N1)). Briefly: cell-based or functional assay.
In experiment [2] the target is hemagglutinin (HA) of influenza A/Hong Kong/2671/2019 (Egg) H3N2 (influenza A virus A/Hong Kong/2671/2019 (H3N2)). Briefly: cell-based or functional assay.
Experiment [3] addresses hemagglutinin (HA) of influenza A/Michigan/45/2015 pH1N1 (influenza A virus A/Michigan/45/2015 (H1N1)). The experiment can be described thus: cell-based or functional assay.
Experiment [4] has the same target. Briefly: cell-based or functional assay. The source holds these as a separate data set.
Experiment [5] concerns the target hemagglutinin (HA) of influenza A/Guangdong-maonan/2019 H1N1 (influenza A virus A/Guangdong-maonan/2019 (H1N1)). Briefly: cell-based or functional assay. The source holds these as a separate data set.
In experiment [6] the target is hemagglutinin (HA) of influenza A/Michigan/45/2015 pH1N1 (influenza A virus A/Michigan/45/2015 (H1N1)). Briefly: cell-based or functional assay. The source holds these as a separate data set.
In experiment [7] the test system is influenza A/Hong Kong/2369/2009 (H1N1pdm) H275Y. The arrangement: species or system BALB/c mice. As to conditions: mouse, in vivo.

SAB-176 Lot 3 (antibody): in experiment [1], the HAI titer (Cell) is 512 titer, the HAI titer (Egg) worked out at 512 titer, the HAI titer ratio of SAB-176 to hIVIG (Cell) turned out to be 16 X and the HAI titer ratio of SAB-176 to hIVIG (Egg) lay within 16 to 32 X. In addition, in experiment [2], the HAI titer (Egg) worked out at 256 titer and the HAI titer ratio of SAB-176 to hIVIG (Egg) was in the range of 16 to 32 X. In experiment [3], the HAI titer is 512 titer and the HAI titer ratio of SAB-176 to hIVIG came to 16 X.
As to SAB-176 Lot 6 (PD2204315QR) (antibody), in experiment [4], the HAI titer came out at 905 titer.
With SAB-176 Lot 1 (PD1901102QR) (antibody), in experiment [1], the HAI titer (Cell) worked out at 512 titer, the HAI titer (Egg) was determined as 512 titer, the HAI titer ratio of SAB-176 to hIVIG (Cell) was 16 X and the HAI titer ratio of SAB-176 to hIVIG (Egg) is 16 to 32 X. Further, in experiment [2], the HAI titer (Egg) turned out to be 64 titer and the HAI titer ratio of SAB-176 to hIVIG (Egg) was 4 to 8 X. The HAI titer of drug product in experiment [3] is 7680 titer. The same compound yielded an HAI titer in experiment [4] of 1280 titer. Moreover, in experiment [5], the HAI titer worked out at 512 titer and the HAI titer ratio of SAB-176 to hIVIG was 16 to 32 X. Further, in experiment [6], the HAI titer came to 512 titer and the HAI titer ratio of SAB-176 to hIVIG is 16 X.
SAB-176 Lot 2 (PD2001010QR) (antibody): in experiment [1], the HAI titer (Cell) was found to be 512 titer, the HAI titer (Egg) was 512 titer, the HAI titer ratio of SAB-176 to hIVIG (Cell) amounted to 16 X and the HAI titer ratio of SAB-176 to hIVIG (Egg) lay within 16 to 32 X. In experiment [2], the HAI titer (Egg) was 128 titer and the HAI titer ratio of SAB-176 to hIVIG (Egg) is 8 to 16 X. Besides, in experiment [3], the HAI titer was 512 titer, the HAI titer of drug product worked out at 14300 titer and the HAI titer ratio of SAB-176 to hIVIG stood at 16 X. In experiment [4], this compound displayed an HAI titer of 1280 titer.
As to SAB-176 (antibody), the HAI titer in experiment [3] was more than 2048 titer.
Take SAB-176 Lot 5 (PD2203294QR) (antibody): the HAI titer in experiment [4] was found to be 1280 titer.
Turning to `CCOC(=O)C1=C[C@@H](OC(CC)CC)[C@H](NC(C)=O)[C@@H](N)C1` [oseltamivir], in experiment [7], the “protection from weight loss” value is “did not protect mice from weight loss”.
In turn, negative control IgG (antibody) returned an HAI titer (Cell) in experiment [1] of less than 1 titer. Further, the HAI titer (Egg) in experiment [1] and in experiment [2] was less than 1 titer each time. The HAI titer in experiment [3] and in experiment [5] was less than 1 titer throughout.
With SAB-176 Lot 4 (PD2102092QR) (antibody), in experiment [1], the HAI titer (Cell) was 512 titer, the HAI titer (Egg) is 512 titer, the HAI titer of drug product was determined as 7680 titer and the HAI titer ratio of SAB-176 to hIVIG (Cell) was found to be 16 X. Moreover, in experiment [1], the HAI titer ratio of SAB-176 to hIVIG (Egg) is 16 to 32 X. Besides, in experiment [2], the HAI titer (Egg) is 256 titer and the HAI titer ratio of SAB-176 to hIVIG (Egg) lay within 16 to 32 X. Also, in experiment [3], the HAI titer was 512 titer and the HAI titer ratio of SAB-176 to hIVIG is 16 X. In experiment [4], this compound displayed an HAI titer of 1810 titer. Besides, in experiment [5], the HAI titer worked out at 512 titer and the HAI titer ratio of SAB-176 to hIVIG was in the range of 16 to 32 X.
